Test results from patent publication US20090176711A1, “INHIBITORS OF AMYLOID PRECURSOR PROTEIN PROCESSING” (priority 2008, published 2009).
Non-standard residues stand in square brackets, D forms with d. No end group written: not given here. *: point of attachment. Biotin = O=C1N[C@H]2[C@H](CS[C@H]2CCCCC(=O)*)N1; Dnp = O=[N+]([O-])c1ccc(*)c([N+](=O)[O-])c1; Mca = COc1ccc2c(CC(=O)*)cc(=O)oc2c1; Ahx = NCCCCCC(=O)O

Columns and labels:
[1] = test system: cleavage of F-Substrate M (f-Sub M) by rhBACE1; assay: Fluorometric (FRET) assay for cleavage of F-Substrate M by rhBACE; assay type: biochemical, human; settings: cleavage of f-Sub M by rhBACE1 (FIG. 29A)
Description: This assay system utilizes fluorescence resonance energy transfer (FRET) technology. Substrate M was synthesized with two fluorophores, a fluorescent donor and a proprietary quenching acceptor (purchased from a commercial source, R&D Systems). […] Upon cleavage of substrate by β-secretase, the fluorophore is separated from the quenching group, restoring the full fluorescence yield of donor.
Substrate labeled with fluorophores will be called F-Substrate M (R&D Systems). Recombinant human β-secretase will be called rhBACE (recombinant human β-site APP cleavage enzyme) (purchased from R&D systems).
F-Substrate M (20 μM) was preincubated with varying concentrations of complementary peptides in assay buffer (0.1 M NaOAc, pH 4.0) for 1 hr at RT. rhBACE (70 nM) in assay buffer was added. Cleavage by rhBACE was detected by reading emitted fluorescence level.
In this assay system, fluorescence resonance energy transfer (FRET) technology was utilized. Swedish mutant APP substrate (f-Sub M) with a fluorescent donor and a proprietary quenching acceptor (7-methoxycoumarin-4-acetyl-SEVNLDAEFRK(Dnp)-RR-NH2) was purchased from R&D systems, Inc (MN, USA). […] Upon cleavage of substrate by rhBACE1 (R&D Systems, Inc., MN, USA), the fluorescence donor is separated from the quenching group, restoring the full fluorescence yield of the donor. f-Sub M (10 μM) was pre-incubated with HC peptide in assay buffer (0.1 M NaOAc, pH 4.0) for 2 h at RT. After pre-incubation, substrate and HC peptide mixture in assay buffer was transferred to FluoroNunc™ 96 well white plate (Nunc, Roskilde, Denmark), and rhBACE1 (70 nM) was added. Time-dependent emission of fluorescence (excitation at 320 nm, emission at 405 nm) was monitored in a Molecular Devices SpectraMax Gemini EM fluorescence reader (CA, USA) for 1 h at 37° C. All assays were carried out in duplicate.

[2] = test system: production of Aβ in HEK 293-APP cells; assay: Measurement of Aβ level in culture media of HEK293-APP cells (Aβ1-40 immunoassay); assay type: cell-based, human
Experimental: Human embryonic kidney (HEK) 293 cells stably transformed with the gene for APP695 (HEK 293-APP) were used for studies on the inhibitory activity of HC peptides. HEK 293-APP cells were generously supplied by Dr. T W Kim (Columbia University, NY, USA). HEK 293-APP cells were cultured in Dulbecco's Modified Eagle's Medium (DMEM) (Invitrogen, CA, USA) with 10% fetal bovine serum (HyClone, UT, USA) and 300 μg/ml of geneticin (Invitrogen, CA, USA) in a humidified atmosphere of 5% CO2, 95% air at 37° C. Cells were subcultured after trypsinization, and the medium was changed every 2-3 days.
Most of the APP processing including the cleavage by BACE1 occurs in endoplasmic reticulum (ER)/Golgi complex and endosome. It was investigated if c-Sub M and the deletion series would inhibit processing of APP in the cells. For this examination, HEK293 cells transformed with wild type human APP genes for our investigation was chosen.
The culture media from the peptide-treated cells (see above) was harvested and centrifuged at 3500×g for 10 min. Amount of Aβ in the supernatant was determined with human Aβ1-40 immunoassay kits (Signal Select™, BioSource, CA, USA) according to the instruction provided by the company.

[3] = test system: CTFβ accumulation (cleavage of APP by BACE1) in HEK 293-APP cells; assay: Level of CTFβ in HEK 293-APP cells (immunoblot, 6E10); assay type: cell-based, human; settings: HEK293-APP cells, 9 h
Experimental: When the confluency of the cells reached 90%, the cells were washed with PBS once, and HC peptide in serum free DMEM was added to the cells. […] The lysed cells were centrifuged at 12000×g for 10 min at 4° C. The protein in the supernatant was determined by bicinchoninic acid assay (Pierce, IL, USA) [Smith, P. K., Krohn, R. I., Hermanson, G. T., Mallia, A. K., Gartner, F. H., Provenzano, M. D., Fujimoto, E. K., Goeke, N. M., Olson, B. J., and Klenk, D. C. […] After electrophoresis, the proteins in the gel were electrophoretically transferred onto a polyvinylidene difluoride (PVDF) membrane at 100 mA for 80 min. The blotted membrane was fixed with 0.2% glutaraldehyde in PBS for 45 min at RT and treated for 5 min in boiling PBS. CTFβ (the C-terminal fragment of APP generated by BACE1) was detected by treatment of the membrane with 0.5 μg/ml of anti-Aβ Nterminal 6E10 antibody (Signetlabs, Inc., MA, USA) followed by incubation with 0.2 μg/ml of anti-mouse antibody coupled with HRP (Amersham Biosciences Ltd. Uppsala, Sweden). The developed film was scanned and the density of CTFβ band was determined by Scion Image Program (Scion Corporation, MD, USA).

[4] = target: T1, N-terminally biotinylated Substrate M; assay: plate assay: complementary peptide on wells, biotinylated substrate, streptavidin-HRP
T1 construct: also called bio-Sub M; Sub M
T1 peptide: Biotin-SEVNLDAEFR
Experimental: (§1) Complementary peptides (0.2, 2, 20, and 200 μM) were dissolved in phosphate buffered saline (PBS) (pH 7.4) and fixed to microtiter wells for 5 hr at 37° C. The wells were blocked with blocking buffer (3% BSA/PBS) for 1 hr at 37° C. Either N-terminally biotinylated Substrate W or M (20 μM) in blocking buffer was added and incubated for overnight at 4° C. Streptavidin-horseradish peroxidase in blocking buffer was added to detect resulting bound substrates. The plate was incubated for 2 hr at room temperature (RT), followed by addition of 3,3′,5,5′-tetramethyl-benzidine (TMB) as substrate for horseradish peroxidase for color reaction.

[5] = target: T2, N-terminally biotinylated Substrate W; assay: plate assay: HC peptide chemically coupled to wells, bio-Sub W, streptavidin-HRP (FIG. 27)
T2 construct: also called bio-Sub W; Sub W
T2 peptide: Biotin-SEVKMDAEFR
Experimental: (§2) Reacti-Bind™ maleic anhydride-activated polystyrene plate (Pierce, IL, USA) was coated with 50 μl of HC peptide (200 μM in distilled water) by chemical coupling for 3 h at room temperature (RT) and washed three times with phosphate buffered saline (PBS) containing 0.05% tween 20 (PBST). The plate was blocked with blocking buffer (0.5% gelatin in PBS) for 1 h at RT. After discarding blocking buffer, biotinylated BACE1 substrates (200 μM) in blocking buffer was applied on the plate and incubated for 2.5 h at RT. Each well was washed three times with PBST. The bound biotinylated BACE1 substrates were detected by incubation with streptavidin-horseradish peroxidase (Str-HRP, 125 mU/ml in blocking buffer) for 2 h at RT. Color reaction was carried out with 50 μl of 3,3′,5,5′-Tetramethylbenzidine Liquid Substrate (Sigma-Aldrich, MO, USA). After stopping the reaction by addition of an equal volume of 1 N HCl, absorbance at 450 nm was read in an automated ELISA reader (EL 312e, Bio-Tek Instruments, VT, USA). All assays were carried out in duplicate.
Thereafter, it was investigated if the c-Sub M and the deletions series bind to wild type Sub W. The results will give us important information on possibility of inhibition of wild type of APP cleavage in cells by the HC peptides derived from Sub M in view of the poor cleavage of Sub W by rhBACE1 in vitro. […] Thus, there is possibility that the HC peptides for Sub M (c-Sub M series) or its peptidomimetics will inhibit the cleavage of wild type APP by BACE1 in cells.

[6] = target: T3, f-Sub M (7-methoxycoumarin-4-acetyl-SEVNLDAEFRK(Dnp)-RR-NH2); assay: cell-based or functional assay
T3 peptide: Mca-SEVNLDAEFRK(Dnp)RR-NH2

[7] = target: T4, recombinant human β-secretase (rhBACE1) (human, UniProt P56817 22-457, limits assumed); assay: ELISA, c-Sub M immobilized
T4 construct: Bought reagent; also called recombinant human β-site APP cleavage enzyme
T4 sequence (P56817 22-457 limits assumed): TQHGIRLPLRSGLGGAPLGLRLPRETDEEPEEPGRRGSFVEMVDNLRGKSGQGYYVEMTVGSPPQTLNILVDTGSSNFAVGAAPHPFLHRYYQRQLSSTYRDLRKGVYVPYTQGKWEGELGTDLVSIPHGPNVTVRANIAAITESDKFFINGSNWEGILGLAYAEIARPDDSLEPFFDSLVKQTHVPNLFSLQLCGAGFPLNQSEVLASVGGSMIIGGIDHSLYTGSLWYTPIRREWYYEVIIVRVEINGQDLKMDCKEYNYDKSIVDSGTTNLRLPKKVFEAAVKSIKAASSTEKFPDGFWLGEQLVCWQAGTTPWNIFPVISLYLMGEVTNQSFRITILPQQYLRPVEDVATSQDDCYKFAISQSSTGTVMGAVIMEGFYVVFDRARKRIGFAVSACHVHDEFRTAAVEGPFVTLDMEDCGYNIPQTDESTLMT

[8] = target: T1, N-terminally biotinylated Substrate M; assay: plate assay: HC peptide chemically coupled to wells, bio-Sub M, streptavidin-HRP (Table 2)
Experimental: as §2
The binding and inhibitory activities of these peptides were determined as described in Experimental Procedures. The concentration of HC peptides and f-Sub M was 0.5 mM and 10 μM, respectively. All the experimental data for the binding activity as well as for the inhibitory activity were within 5% error range.

[9] = target: T2, N-terminally biotinylated Substrate W; assay: plate assay: complementary peptide on wells, biotinylated substrate, streptavidin-HRP
Experimental: as §1

[10] = target: T1, N-terminally biotinylated Substrate M; assay: plate assay: HC peptide chemically coupled to wells, bio-Sub M, streptavidin-HRP (Table 1)
Experimental: as §2
The HC peptides were chemically coupled to the surface of a microtiter plate to minimize the different coating efficiency of peptides, and the Sub M labeled with biotin (bio-Sub M) was applied. bio-Sub M bound to c-Sub but not to Sub M-c (FIG. 25A). To test inhibitory activity of HC peptide, FRET assay system was used as described above. […]

**Q.** Which results are given for “NH2-(CH2)5-CO-Cys-Ile-Gln-Ile-His-Phe-NH2 ([Ahx]CIQIHF-NH2; N-terminus assumed; SMILES CC[C@H](C)[C@H](NC(=O)[C@H](CCC(N)=O)NC(=O)[C@@H](NC(=O)[C@H](CS)NC(=O)CCCCCN)[C@@H](C)CC)C(=O)N[C@@H](Cc1c[nH]cn1)C(=O)N[C@@H](Cc1ccccc1)C(N)=O) [AHX-c-Sub M ΔN3C1]”?
**A.** in vitro inhibitory activity relative to non-modified c-Sub M ΔN3C1 [1]: by half; reduction of amount of Aβ released ([2]; 6.25 μM, 9 h): about 70%; amount of Aβ released into the culture medium ([2]; increasing concentrations): reduced in a concentration dependent manner; accumulation of the cleavage product CTFβ [3]: inhibited the accumulation of both forms of CTFβs

**Q.** For “β-secretase inhibitor IV [reference compound]”, which “inhibition of production of Aβ” value ([2]; 2 μM) is on record?
**A.** about 90%

**Q.** What about the “accumulation of the cleavage product CTFβ” value [3] of the same molecule?
**A.** inhibited accumulation of only the nonphosphorylated form of CTFβ

B1: c-Sub M (peptide)
peptide: SEFCIQIHFR-NH2
notes: Hydropathic complementary decapeptide to Sub M, read 5'-3'
**Q.** Does B1 bind [4]?
**A.** binds

**Q.** And the “fold binding to Sub W relative to c-Sub W” value [5]?
**A.** 4 fold

**Q.** And the “inhibition of cleavage of f-Sub M by rhBACE1 (FRET), HC peptide 100 fold over substrate” value [6]?
**A.** ~50%

**Q.** What about the “inhibitory activity for the cleavage of f-Sub M by rhBACE1 (FRET; HC peptide 1 mM, f-Sub M 10 µM)” value [6] of the same molecule?
**A.** 45%

**Q.** Does B1 bind [7]?
**A.** no binding

**Q.** SEFCIQIHF-NH2 [c-Sub M ΔC1] was tested. Which “inhibitory activity for the cleavage of f-Sub M by rhBACE1 (FRET; HC peptide 1 mM, f-Sub M 10 µM)” value [6] did it give?
**A.** 90%

**Q.** Does SEFCIQIHF-NH2 [c-Sub M ΔC1] bind [8]?
**A.** binds

B2: c-Sub W (peptide)
peptide: SEFCIHLHFR-NH2
notes: Hydropathic complementary decapeptide to Sub W, read 5'-3'
**Q.** Does B2 bind [9]?
**A.** binds

**Q.** Does B2 bind [10]?
**A.** binds

B3: Sub W-c (peptide)
peptide: RLHFYLRLKA-NH2
notes: Hydropathic complementary decapeptide to Sub W, read 3'-5'
**Q.** Does B3 bind [10]?
**A.** binds
